Target: GST fused with the C-terminal variable region of LigB (LigBCtv; amino acids 1418-1889) (Leptospira interrogans serovar Pomona)
Experiment: ITC

Substance: Human plasma fibronectin (natural protein)
- Kd: 8.55 µM
